From a protein production outcome set (Wang et al. 2014)

Assay: label from the status in PepcDB records

Sequence | protein production
MKWIMKLRWAILAFWLAAAVVLMFIAPPMADLVREKGELKLPDGYPSSLATEMQKKHNPDDKGSAYIAVYTADHKLTGTELNDIQKSLDSIEKDKDELHVTNVLSSFNQPELKDKFLAKDGKTMVASLTVDDTDASVKSIRNALDKKMDVKGVDTYLTGNKLIQEDVVQGSEDGLHKTEGITVVFILVVLFLVFRSAVAPFIPLITVGISYLVAQSTVAFLIDIFNFPVSTYTQIFMVCIMFGIGTDYCILLMSRFKEEMGAGLNPREAVHATYRTAGKTVIYSGVAVLVAFTSLYFVQFDLYRSAVAVGVGIVVLLAALYTLVPFFMSTLGTHLFWPLNKNISHKENKIWGAAGKFTFARPWIALLIVAAITLPPILLHTGTESFNSLDEISDKYPSKKGFEIVSDSFGAGQVAPTQIFIENDDNMRTTDYIAQIEKISDDLSHLKGIDMVMSASRPAGKRVDDIYIKNQAGQVNDGVGQATDGVGEVKKGLDSASSELKKSEPALDKAVAGVGDLQKGTVATQEGINQLQTALAQIQKGIESGATGAGDLKQGVAEAKSQLATLQNGEAQIQAGYAEIQKNLQNVADQLKGFENPSSQAIDTSKLEEQFKKIGASFQAFAAAHPEVRNDPRFQKLAADIQGLETAGNELKTSAGQQMAALQAKMKELNQGIQQLATAMNQLNEQSKQISDGLSAFSTGLGQIETGLDQLEKGLNQAAVGQGQVVSKMPEVSNALTQIAAGQGALKDGFAGISGQMGQLTDGLTSGADGLGKVESGLNTANGLIDDWSKVPYASSGIYVPDALLKNADFQKVLDQYISSDGKLATINVILTKNPYSNEAMDSIDDINDQLAASMKGTKLENAKIGIGGMTSANYDTRDMSTADYHLVLVIVLASVFVTLVIVLRSLVMPIYLIASLVLTYFAALGFAEIIFMRILGYSGLTWATPFFGFVVLVALGIDYSIFLMSRFNEYNGLSVRDRMIKAMKNMGGVIFSAVIILGGTFAAMMPAGVLSLLEIATVVLIGLVLYAVVILPLFVPVMVKLFGRGNWWPFITRKGDHQENVPPKK | failed
MKWKKSLAGLSSYKPGKREEEVMAELGLTKITKLSSNENPLGTSKKVAAIQANSSVETEIYPDGWASSLRKEVADFYQLEEEELIFTAGVDELIELLTRVLLDTTTNTVMATPTFVQYRQNALIEGAEVREIPLLQDGEHDLEGMLNAIDEKTTIVWICNPNNPTGNYIELADIQAFLDRVPSDVLVVLDEAYIEYVTPQPEKHEKLVRTYKNLIITRTFSKIYGLASARVGYGIADKEIIRQLNIVRPPFNTTSIGQKLAIEAIKDQAFIGECRTSNANGIKQYEAFAKRFEKVKLYPANGNFVLIDLGIEAGTIFSYLEKNGYITRSGAALGFPTAVRITIGKEEDNSAVIALLEKLL | not failed
MKWLLVASAALYLFGSFRRPLFALGLGAGLAYLALRGISLGRLPLVGPHDTIAFFSASIGLMTLPFLFSPSLRNSSAFPWATGGTAAVFALFSLAFPALAMPLPPILNTLWFELHVALAFFAYALFTIGAIMGVLFLAGGERRLLDLQYRAALVGYTFFSGSMVAGGIWGYYAWGTYWLWTPKELWTSILWIFYTFWLHLRLRGAGGDRLLAWTGILGFGVMLFTYLGVSMLMKSSHSF | failed
MKYAIREYKGKNVDLSKLSSIIENYFREENFVTQSSQHPRGYVIQAKKGGIFRTILGMDRAFTIVLVGDSSDFKVQIGVGKWLQDLGVAAIEAFLITPVVAFVEVPESLWSFELEHEFWQFLENQINLGIQ | failed
MKYKLLVLDVDGTLLNDEKEITPRTLATLLKVQQMGVHIVLASGRPTYGILPLAKKLELGNYGGYILSYNGAQVINAKNGEVLLERRINPEMLPYLEKKARKNGFAIFTYTEDRMIADQADNEHILQEAFLNRMELIEEPEFSVAVDFAPSKCMLVSDDEEALIGLEEHWKKRLNGALDVFRSEPYFLEVLPCGIDKSTSLGALLSHLDITPEEIIVIGDGVCDVSMIQFAGLGIAMGNAQDSVKVCADVVTASNEEDGVALAVEKAILSEIRPAEIPLDQLNERARHALMGNLGIQYTYASEDRVEATMPVDERTRQPFGILHGGATLALAETVAGLGSMILCQPDEIVVGMQVSGNHMSSAHEGDTVRAVGTIIHKGRSSHVWNVDVFTSTDKLVSSIRVVNSILKKR | failed
MKYLKNKIIHFLIFGGIYMDVEVLARAHGQQLVGYEGIKPLSLMGFTSLWMFLVGGLCGVIIGGLNDRPGYYNLKMWKQVLIGGTTITLVELFSGIFFNLYLGLHLWDYSKDRFNFMGQIELKNCIWWYVLPILIIWLDDVLSCYFYGDDRPPSLIMYLVKLVTLR | failed
MKYLPLYPILARYPFLRIASRVFSFNIEDELRKFLDTVEAAKRIVDKAIDGRVEYDRFTDESEFFCLGCEENCYDCQKRGTLEGCDLCMGCFENCSLYYPREAVERFYTNAKLSLLTYIASRMIVSAMEDWVRMRYAVNEASYYSRLLREDVEESGKEPIVRLVAIDLGAKLKGWKMHVSTFVRVSARIKDDKWRLVNRKLRNGWVETTKAEVLRGLEELLRMKLFEKVPVSEAVSEAVRELSRKAKRESEKFAMDLGEVDLNCLPPCMREILSELQRGMNIPHTARFAITSFLLNIGMTVDEIIALFKSAPDFDDEKTRYQVEHIAGERGKGAEYTSPSCDTMRTYSNCVADCRVSHPLIYYKKCKSKSLEHHHHHH | not failed
MKYQNEGQHRSPWALIVFLALSMAVTSPATRAQSSDLPSIGGSGGLISGQMEADIGQQVMASIRRSAPQLQDPLVYDYLSAIIYRLVPSAPLDNRDLKLVLIDSPAINAFAVPGGVVGVNGGLFLNAATEQQFASVLAHELAHLSQRHFARRMQQQETSAPLTLAGMIAGIVLSAVTQSDIGIAAIAGTQAMAVQNMLAYSRSHEQEADRVGMDILASAGMDPRGMPEMFEIMMRQNRLQGNRLPEYLSTHPLTQNRVADTRNRAEQYPDTRVQDGQEYHLVRSRLQVHYSESPETAIETFEAYLAREDAQRNDAIRYGLAVAYQESRRYEKAEQLMRELLKANPGRITFQVSLAEVLLSQKRYADARALMQEALARNPGNYPITSTLAAIEIADGNGAAAADYLRELTRRLPSQEQLWLRLAEAEGMARNIVGVHRARAEYDVLMGDLKSAQRQLRQAQEKLPAGSAERQVVSERLGELTNRLQAREAG | failed
MKYRQWVLGAGFTLSVGLSSVAHAFSIPQPANEIAASKFVHIQVQAEQGDADAQFLLGLMFLSGRYVQQEVPSGLHWITLAAEQQHEKAQQTLADLSFEGQLIKRDLAVAERWYKDMGERGNRWAQFRLGFIYASGGDGVKRNCGKAVEQFTRVGDDIALGNVAWILATCPEAEYRDGNKALELSLQLLKVNENDPTNLDNLAAAYAEVGDFGAAVSTQQKAIAALKMTAEATKTDEFKQRLHSYEQKRAYRETLRLLE | failed
MKYSEAQQGRVFVIRLEDGDIFHEEIERFAKEKGIERAYLNVVGGADKESKLVVGPEESRTYPVNPMEHELYDAHEIVGTGTLFPDDTSAPVVHLHMACGREENTVTGCVRNGVKVWHVMEVILVELLGTQARRLPDKATGFKLLVPLEHHHHHH | not failed
MKYYPFSYYRSINAADLYENIKAYTVLDVREPFELIFGSIANSINIPISELREKWKILERDKKYAVICAHGNRSAAAVEFLSQLGLNIVDVEGGIQSWIEEGYPVVYGRESAEDLEHHHHHH | not failed
MLALKKKSVKAAFEALIPKIMEEGTEMVSEDGQKCKELMNTIIEITDPSDKSISEKYPLGERAVESYTEQLLHGSAATFVYDYHERIFEYPSDKKELKNDQIDYIVNKLKEQINSRRAIAITWNPYIDQTVKDVPCLQIVQFLIRDNKLYQTVLFRSNDAFLAFHANAIGLIALGEMVAEKLEIELAKYTHHSVSMHVYSERDIDALKKF | not failed
MLALKSSELEGIATSLTAVAGALHESNTDRLQSWQQLETMTSASSLIQGFIKLVDYNRPTVNIVEQMHKTASTLFNTADFLRTLEGYVDVLEKQADKSITLTVMLRYIASLSSLLDLMCAREINALCTAITPEPLKHLGDFGTLPASAIHEFHLVNAPPEIRALAEAHPDMQILEAGDGSLVASFGDIDRATTVTTIVAGVGSSNPEGWNTYVDRARTVSASTGSATVLWLGYQAPASIPAAVSGAAANRAAADLQRFQAALQSRNPHQRKVVMGYSYGSTVVGKAASSGELSADALVLVGSPGAGVSHSSQLGAPVYAVTGSADPIGFAGTQYDGIHGTDPTAALFGATVWDSPSTHSGYWNDQEFLGNVAEVVRGK | failed
